What was measured:
Test in all cases: SPR
[1] = biological target: AS519 VHH
[2] = biological target: AS656 VHH
[3] = biological target: AS588 VHH
[4] = biological target: AS675 VHH
[5] = biological target: AS200 VHH
[6] = biological target: AS988 VHH
[7] = biological target: AS154 VHH
[8] = biological target: AS325 VHH
[9] = biological target: AS673 VHH
[10] = biological target: His-tag camel-derived nanobody AS718 VHH-His
Sequence of His-tag camel-derived nanobody AS718 VHH-His (VHH, as listed by the source): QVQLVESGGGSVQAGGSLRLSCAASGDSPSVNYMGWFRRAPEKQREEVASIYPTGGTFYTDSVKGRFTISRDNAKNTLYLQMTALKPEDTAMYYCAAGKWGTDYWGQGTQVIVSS

Sequence of AS656 VHH (VHH, as listed by the source): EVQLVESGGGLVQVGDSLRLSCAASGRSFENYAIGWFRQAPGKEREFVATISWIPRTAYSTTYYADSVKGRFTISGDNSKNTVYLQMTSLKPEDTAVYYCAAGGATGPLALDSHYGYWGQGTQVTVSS
Sequence of AS988 VHH (VHH, as listed by the source): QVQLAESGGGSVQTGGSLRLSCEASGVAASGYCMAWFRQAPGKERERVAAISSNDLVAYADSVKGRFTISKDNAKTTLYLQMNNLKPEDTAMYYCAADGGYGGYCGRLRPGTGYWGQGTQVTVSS
Sequence of AS519 VHH (VHH, as listed by the source): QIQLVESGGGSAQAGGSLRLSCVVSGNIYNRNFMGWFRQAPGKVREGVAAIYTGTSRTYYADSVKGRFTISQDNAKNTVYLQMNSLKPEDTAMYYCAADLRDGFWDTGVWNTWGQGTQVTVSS
Sequence of AS673 VHH (VHH, as listed by the source): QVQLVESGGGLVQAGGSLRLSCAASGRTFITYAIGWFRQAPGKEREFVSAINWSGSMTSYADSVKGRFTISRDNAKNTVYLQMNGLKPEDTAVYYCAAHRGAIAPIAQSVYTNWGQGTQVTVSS
Sequence of AS675 VHH (VHH, as listed by the source): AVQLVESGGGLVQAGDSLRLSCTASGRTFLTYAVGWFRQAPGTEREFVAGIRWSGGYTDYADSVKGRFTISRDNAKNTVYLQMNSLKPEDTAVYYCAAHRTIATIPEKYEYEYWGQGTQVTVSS
Sequence of AS325 VHH (VHH, as listed by the source): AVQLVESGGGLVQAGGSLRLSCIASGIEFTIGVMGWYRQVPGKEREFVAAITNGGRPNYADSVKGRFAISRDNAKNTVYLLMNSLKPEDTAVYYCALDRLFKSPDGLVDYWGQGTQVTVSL
Sequence of AS154 VHH (VHH, as listed by the source): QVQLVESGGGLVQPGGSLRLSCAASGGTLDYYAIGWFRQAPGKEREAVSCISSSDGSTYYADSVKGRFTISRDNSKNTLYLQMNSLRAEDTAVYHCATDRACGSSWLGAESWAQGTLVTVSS
Sequence of AS588 VHH (VHH, as listed by the source): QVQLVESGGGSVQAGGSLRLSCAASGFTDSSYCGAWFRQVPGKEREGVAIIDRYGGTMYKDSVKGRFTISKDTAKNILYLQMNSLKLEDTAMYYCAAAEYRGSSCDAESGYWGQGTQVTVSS
Sequence of AS200 VHH (VHH, as listed by the source): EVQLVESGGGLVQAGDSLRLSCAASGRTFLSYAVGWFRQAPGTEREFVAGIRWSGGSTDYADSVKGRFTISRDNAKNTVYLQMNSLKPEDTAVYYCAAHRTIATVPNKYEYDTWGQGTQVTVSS

B1: R166.C5 (antibody, V domains shown)
VH: QSVEESGGRLVTPGTPLTLTCTVSGFSLRNFAMSWVRQAPGKGLEWIGIIYSGGTRDYATWAKGRFTISKTSTTVDLKMTSPTTEDTATYFCARDRSPDYSAAFLLWGQGTLVTVSS
VL: IVMTQTPSSKSVPVGDTVTINCQASESVYSNNHLAWFQQKPGQPPKLLIYSASTLESGVPSRFKGSGSGTQFTLTISGVQCDDAATYYCAGYKSSDTDGTSFGGGTEVVVKG
[1]
  Kd: 1.66 pM
[2]
  Kd: 1.34 pM
[3]
  Kd: 7.09 pM
[4]
  Kd: 34.5 pM
[5]
  Kd: 11.8 pM
[6]
  Kd: 7.08 pM
[7]
  Kd: 402 pM
[8]
  Kd: 4.04 pM
[9]
  Kd: 4.36 pM
[10]
  Kd: 3.47 pM

Reference: patent US20220281997A1 (published 2022)
